Experimental data reported in paper PMC9798103.

Biological target: F-actin (polymerised from Ca2+-ATP G-actin of rabbit skeletal muscle) (rabbit) (UniProt P68135)
Test: co-sedimentation

Kd: 14 µM
Substance: N-terminal half of RHGF-1 without the PDZ domain (RHGF-1-N-ΔPDZ) (domain or fragment)
